The subject of data set [1] is HeLa Kyoto. Briefly: solubility change mitosis vs G1/S (difference of NP-40 vs SDS log2 ratios) (log2 ratio difference); higher = more soluble in mitosis.
Data set [2] concerns HeLa Kyoto. Briefly: solubility in G1/S (NP-40 vs SDS abundance) (log2 ratio); higher = more soluble. As to conditions: cell cycle stage: G1/S.
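Wherever solubility change mitosis vs G1/S (difference of NP-40 vs SDS log2 ratios) is given: synchronized HeLa Kyoto cells (double thymidine block for G1/S, nocodazole release for mitosis), protein amounts in NP-40 versus SDS lysates quantified by mass spectrometry, three biological replicates.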
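Wherever solubility in G1/S (NP-40 vs SDS abundance) is given: HeLa Kyoto cells arrested at G1/S by double thymidine block, proteins quantified by TMT10plex mass spectrometry in mild NP-40 versus SDS extracts, three biological replicates.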

Chain of ISG20 (chain, as listed by the source): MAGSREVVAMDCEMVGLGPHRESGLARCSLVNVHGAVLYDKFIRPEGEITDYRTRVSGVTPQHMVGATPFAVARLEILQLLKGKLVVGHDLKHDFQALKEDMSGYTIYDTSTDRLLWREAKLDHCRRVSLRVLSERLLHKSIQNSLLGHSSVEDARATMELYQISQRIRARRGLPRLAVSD
Chain of PCBD2 (chain, as listed by the source): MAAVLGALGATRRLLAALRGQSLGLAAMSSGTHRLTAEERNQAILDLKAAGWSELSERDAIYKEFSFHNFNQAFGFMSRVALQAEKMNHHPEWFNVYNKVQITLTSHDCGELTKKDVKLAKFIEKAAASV

For the substance “MEDKRNIQIIEWEHLDKKKFYVFGVAMTMMIRVSVYPFTLIRTRLQVQKGKSLYHGTFDAFIKILRADGITGLYRGFLVNTFTLISGQCYVTTYELTRKFVADYSQSNTVKSLVAGGSASLVAQSITVPIDVVSQHLMMQRKGEKMGRFQVRGNPEGQGVVAFGQTKDIIRQILQADGLRGFYRGYVASLLTYIPNSAVWWPFYHFYAEQLSYLCPKECPHIVFQAVSGPLAAATASILTNPMDVIRTRVQVEGKNSIILTFRQLMAEEGPWGLMKGLSARIISATPSTIVIVVGYESLKKLSLRPELVDSRHW [SLC25A44]”, the “solubility change mitosis (log2)” value in data set [1] is -0.117. Besides, in data set [2], the “solubility in G1/S (log2)” value is -0.146.

Turning to “MSETDHIASTSSDKNVGKTPELKEDSCNLFSGNESSKLENESKLLSLNTDKTLCQPNEHNNRIEAQENYIPDHGGGEDSCAKTDTGSENSEQIANFPSGNFAKHISKTNETEQKVTQILVELRSSTFPESANEKTYSESPYDTDCTKKFISKIKSVSASEDLLEEIESELLSTEFAEHRVPNGMNKGEHALVLFEKCVQDKYLQQEHIIKKLIKENKKHQELFVDICSEKDNLREELKKRTETEKQHMNTIKQLESRIEELNKEVKASRDQLIAQDVTAKNAVQQLHKEMAQRMEQANKKCEEARQEKEAMVMKYVRGEKESLDLRKEKETLEKKLRDANKELEKNTNKIKQLSQEKGRLHQLYETKEGETTRLIREIDKLKEDINSHVIKVKWAQNKLKAEMDSHKETKDKLKETTTKLTQAKEEADQIRKNCQDMIKTYQESEEIKSNELDAKLRVTKGELEKQMQEKSDQLEMHHAKIKELEDLKRTFKEGMDELRTLRTKVKCLEDERLRTEDELSKYKEIINRQKAEIQNLLDKVKTADQLQEQLQRGKQEIENLKEEVESLNSLINDLQKDIEGSRKRESELLLFTERLTSKNAQLQSESNSLQSQFDKVSCSESQLQSQCEQMKQTNINLESRLLKEEELRKEEVQTLQAELACRQTEVKALSTQVEELKDELVTQRRKHASSIKDLTKQLQQARRKLDQVESGSYDKEVSSMGSRSSSSGSLNARSSAEDRSPENTGSSVAVDNFPQVDKAMLIERIVRLQKAHARKNEKIEFMEDHIKQLVEEIRKKTKIIQSYILREESGTLSSEASDFNKVHLSRRGGIMASLYTSHPADNGLTLELSLEINRKLQAVLEDTLLKNITLKENLQTLGTEIERLIKHQHELEQRTKKT [CCDC186]”, the “solubility change mitosis (log2)” value in data set [1] was 0.000436. In addition, the “solubility in G1/S (log2)” value in data set [2] is 0.232.

As for “MKRQSERDSSPSGRGSSSSAKRPREREREAEAGGRRAAHKASGGAKHPVPARARDKPRGSGSGGGGHRDGRGTGDANHRASSGRSSGSGAGGGGRGGKASGDPGASGMSPRASPLPPPPPPPGAEPACPGSSAAAPEYKTLLISSLSPALPAEHLEDRLFHQFKRFGEISLRLSHTPELGRVAYVNFRHPQDAREARQHALARQLLLYDRPLKVEPVYLRGGGGSSRRSSSSSAAASTPPPGPPAPADPLGYLPLHGGYQYKQRSLSPVAAPPLREPRARHAAAAFALDAAAAAAVGLSRERALDYYGLYDDRGRPYGYPAVCEEDLMPEDDQRATRNLFIGNLDHSVSEVELRRAFEKYGIIEEVVIKRPARGQGGAYAFLKFQNLDMAHRAKVAMSGRVIGRNPIKIGYGKANPTTRLWVGGLGPNTSLAALAREFDRFGSIRTIDHVKGDSFAYIQYESLDAAQAACAKMRGFPLGGPDRRLRVDFAKAEETRYPQQYQPSPLPVHYELLTDGYTRHRNLDADLVRDRTPPHLLYSDRDRTFLEGDWTSPSKSSDRRNSLEGYSRSVRSRSGERWGADGDRGLPKPWEERRKRRSLSSDRGRTTHSPYEERSRTKGSGQQSERGSDRTPERSRKENHSSEGTKESSSNSLSNSRHGAEERGHHHHHHEAADSSHGKKARDSERNHRTTEAEPKPLEEPKHETKKLKNLSEYAQTLQLGWNGLLVLKNSCFPTSMHILEGDQGVISSLLKDHTSGSKLTQLKIAQRLRLDQPKLDEVTRRIKQGSPNGYAVLLATQATPSGLGTEGMPTVEPGLQRRLLRNLVSYLKQKQAAGVISLPVGGSKGRDGTGMLYAFPPCDFSQQYLQSALRTLGKLEEEHMVIVIVRDTA [RBM15B]”, the “solubility change mitosis (log2)” value in data set [1] amounted to 0.504. Also, the “solubility in G1/S (log2)” value in data set [2] is -0.311.

Consider ISG20, for which, in data set [1], the “solubility change mitosis (log2)” value is -0.182. Also, the “solubility in G1/S (log2)” value in data set [2] came to 0.28.

In the case of “MKLLRRAWRRRAALGLGTLALCGAALLYLARCAAEPGDPRAMSGRSPPPPAPARAAAFLAVLVASAPRAAERRSVIRSTWLARRGAPGDVWARFAVGTAGLGAEERRALEREQARHGDLLLLPALRDAYENLTAKVLAMLAWLDEHVAFEFVLKADDDSFARLDALLAELRAREPARRRRLYWGFFSGRGRVKPGGRWREAAWQLCDYYLPYALGGGYVLSADLVHYLRLSRDYLRAWHSEDVSLGAWLAPVDVQREHDPRFDTEYRSRGCSNQYLVTHKQSLEDMLEKHATLAREGRLCKREVQLRLSYVYDWSAPPSQCCQRREGIP [B3GALT6]”, in data set [1], the “solubility change mitosis (log2)” value was found to be 0.135. The “solubility in G1/S (log2)” value in data set [2] is -0.748.

With PCBD2, the “solubility change mitosis (log2)” value in data set [1] stood at 0.0587. The “solubility in G1/S (log2)” value in data set [2] was -0.0388.

Take “MRRDVNGVTKSRFEMFSNSDEAVINKKLPKELLLRIFSFLDVVTLCRCAQVSRAWNVLALDGSNWQRIDLFDFQRDIEGRVVENISKRCGGFLRKLSLRGCLGVGDNALRTFAQNCRNIEVLNLNGCTKTTDATCTSLSKFCSKLRHLDLASCTSITNMSLKALSEGCPLLEQLNISWCDQVTKDGIQALVRGCGGLKALFLKGCTQLEDEALKYIGAHCPELVTLNLQTCLQITDEGLITICRGCHKLQSLCASGCSNITDAILNALGQNCPRLRILEVARCSQLTDVGFTTLARNCHELEKMDLEECVQITDSTLIQLSIHCPRLQVLSLSHCELITDDGIRHLGNGACAHDQLEVIELDNCPLITDASLEHLKSCHSLERIELYDCQQITRAGIKRLRTHLPNIKVHAYFAPVTPPPSVGGSRQRFCRCCIIL [FBXL20]”: the “solubility change mitosis (log2)” value in data set [1] is -0.0226. Besides, the “solubility in G1/S (log2)” value in data set [2] is -0.0856.

In the case of “MNRHLCVWLFRHPSLNGYLQCHIQLHSHQFRQIHLDTRLQVFRQNRNCILHLLSKNWSRRYCHQDTKMLWKHKALQKYMENLSKEYQTLEQCLQHIPVNEENRRSLNRRHAELAPLAAIYQEIQETEQAIEELESMCKSLNKQDEKQLQELALEERQTIDQKINMLYNELFQSLVPKEKYDKNDVILEVTAGRTTGGDICQQFTREIFDMYQNYSCYKHWQFELLNYTPADYGGLHHAAARISGDGVYKHLKYEGGIHRVQRIPEVGLSSRMQRIHTGTMSVIVLPQPDEVDVKLDPKDLRIDTFRAKGAGGQHVNKTDSAVRLVHIPTGLVVECQQERSQIKNKEIAFRVLRARLYQQIIEKDKRQQQSARKLQVGTRAQSERIRTYNFTQDRVSDHRIAYEVRDIKEFLCGGKGLDQLIQRLLQSADEEAIAELLDEHLKSAK [MTRF1]”, in data set [1], the “solubility change mitosis (log2)” value was -0.0209. Besides, the “solubility in G1/S (log2)” value in data set [2] stood at 0.228.

In the case of “MASLQRKGLQARILTSEEEEKLKRDQTLVSDFKQQKLEQEAQKNWDLFYKRNSTNFFKDRHWTTREFEELRSCREFEDQKLTMLEAGCGVGNCLFPLLEEDPNIFAYACDFSPRAIEYVKQNPLYDTERCKVFQCDLTKDDLLDHVPPESVDVVMLIFVLSAVHPDKMHLVLQNIYKVLKPGKSVLFRDYGLYDHAMLRFKASSKLGENFYVRQDGTRSYFFTDDFLAQLFMDTGYEEVVNEYVFRETVNKKEGLCVPRVFLQSKFLKPPKNPSPVVLGLDPKS [METTL6]”, the “solubility change mitosis (log2)” value in data set [1] came to 0.018. In data set [2], the “solubility in G1/S (log2)” value was determined as 0.0543.

With “MAEAATGFLEQLKSCIVWSWTYLWTVWFFIVLFLVYILRVPLKINDNLSTVSMFLNTLTPKFYVALTGTSSLISGLILIFEWWYFRKYGTSFIEQVSVSHLRPLLGGVDNNSSNNSNSSNGDSDSNRQSVSECKVWRNPLNLFRGAEYNRYTWVTGREPLTYYDMNLSAQDHQTFFTCDSDHLRPADAIMQKAWRERNPQARISAAHEALEINEIRSRVEVPLIASSTIWEIKLLPKCATAYILLAEEEATTIAEAEKLFKQALKAGDGCYRRSQQLQHHGSQYEAQHRRDTNVLVYIKRRLAMCARRLGRTREAVKMMRDLMKEFPLLSMFNIHENLLEALLELQAYADVQAVLAKYDDISLPKSATICYTAALLKARAVSDKFSPEAASRRGLSTAEMNAVEAIHRAVEFNPHVPKYLLEMKSLILPPEHILKRGDSEAIAYAFFHLAHWKRVEGALNLLHCTWEGTFRMIPYPLEKGHLFYPYPICTETADRELLPSFHEVSVYPKKELPFFILFTAGLCSFTAMLALLTHQFPELMGVFAKAMIDIFCSAEFRDWNCKSIFMRVEDELEIPPAPQSQHFQN [ST7]”, the “solubility change mitosis (log2)” value in data set [1] is 0.0591. In data set [2], the “solubility in G1/S (log2)” value is -0.381.

In the case of “MTHTRRKSLPMLSSGLTGRREPLQMEDSNMEQGVEGVEPGMPESPGHLTGRRKNYPLRKRPLVPEKPKACKVLLTRLENVAGPRSADEADELPPDLPKPPSPAPSSEDPGLAQPRKRRLASLNAEALNNLLLEREDTSSLAGTRRSRAGDPHRSRDRDRATGGWSSSKKRPRLGDLGGGSRDLSPEPAPDEGPRRDGDPAPKRLASLNAAAFLKLSQERELPLRLPRAHAEVDGRSTEPPAPKAPRPKWPKVNGKNYPKAWQGASSGEAAGPPGWQGCPDEPWPSATPCGPSVQPSHQPLSKALESPLGLRPHLPLLMGGQAALKPEPGRPGEESPAPKQELHQPSFPTPQLSPLPMPGNPADYNGLCVGPELTALGSFYLYCGQEGLQCGGYSPCPMLPEGKLSPVAAPHEEGLLLAPSSVPSGTPFQHPPWGSSRYCSSEDTGVNGYSICGVLPLSVTHAGTTCGGCPYKMPFAAEGCRSLGQLEFPLPEAGHPASPAHPLLGCPVPSVPPAAEPVPHLQTPTSEPQTVARACPQSAKPPSGSKSGLRTGSSCRHTARSKAARRPSHPKQPRVQRPRPRRRRRRRTNGWVPVGAACEKAVYVLDEPEPAIRKSYQAVERHGETIRVRDTVLLKSGPRKTSTPYVAKISALWENPESGELMMSLLWYYRPEHLQGGRSPSMHEPLQNEVFASRHQDQNSVACIEEKCYVLTFAEYCRFCAMAKRRGEGLPSRKTALVPPSADYSTPPHRTVPEDTDPELVFLCRHVYDFRHGRILKNPQ [BAHD1]”, the “solubility change mitosis (log2)” value in data set [1] was found to be 0.738. In addition, in data set [2], the “solubility in G1/S (log2)” value is -0.799.

On to “MAASLWMGDLEPYMDENFISRAFATMGETVMSVKIIRNRLTGIPAGYCFVEFADLATAEKCLHKINGKPLPGATPAKRFKLNYATYGKQPDNSPEYSLFVGDLTPDVDDGMLYEFFVKVYPSCRGGKVVLDQTGVSKGYGFVKFTDELEQKRALTECQGAVGLGSKPVRLSVAIPKASRVKPVEYSQMYSYSYNQYYQQYQNYYAQWGYDQNTGSYSYSYPQYGYTQSTMQTYEEVGDDALEDPMPQLDVTEANKEFMEQSEELYDALMDCHWQPLDTVSSEIPAMM [TRNAU1AP]”, for which the “solubility change mitosis (log2)” value in data set [1] is -0.0623. Moreover, the “solubility in G1/S (log2)” value in data set [2] is 0.0945.

Turning to “MVAWRSAFLVCLAFSLATLVQRGSGDFDDFNLEDAVKETSSVKQPWDHTTTTTTNRPGTTRAPAKPPGSGLDLADALDDQDDGRRKPGIGGRERWNHVTTTTKRPVTTRAPANTLGNDFDLADALDDRNDRDDGRRKPIAGGGGFSDKDLEDIVGGGEYKPDKGKGDGRYGSNDDPGSGMVAEPGTIAGVASALAMALIGAVSSYISYQQKKFCFSIQQGLNADYVKGENLEAVVCEEPQVKYSTLHTQSAEPPPPPEPARI [CD99L2]”, in data set [1], the “solubility change mitosis (log2)” value was -0.147. Moreover, the “solubility in G1/S (log2)” value in data set [2] was -0.143.

Source of the values: the supplement of paper PMC5998384.
